This note sets out measurements from publication PMC9739478.

The test addresses human von Willebrand factor (vWF) (human) (UniProt P04275).

Consider “glycoprotein Ib alpha chain (GPIbα) (from UniProt P07359 17-652) (receptor)”, for which the platelet adherence to vWF-coated surface (LDH assay, normalised to PRP only = 100%) in the presence of GPIb-NPs, 1 mg/mL is 72%; the platelet adherence to vWF-coated surface (LDH assay, normalised to PRP only = 100%) in the presence of dual-NPs (GPIbα and anti-CD34 HuscFv on one NP), 1 mg/mL is 76%; the platelet adherence to vWF-coated surface (LDH assay, normalised to PRP only = 100%) in the presence of free GPIb was found to be 86%.
